Patent US20060062761A1

molecular target: HLA-DR DRB1*0101 on fixed HOM-2 cells (human); test: competition; details: modification not given

Binder	IC50 [µM]
AVRKYFQRITLYLKE [40]	95
IQGVGVTETPLMKED [34]	> 500
VVRAEIMRSFSLSTN [48]	25
SILAVRKYFQRITLY [39]	100
TETPLMKEDSILAVR [36]	25
QFQKAETIPVLHEMI [16]	350
KEDSILAVRKYFQRI [38]	> 500
PLMKEDSILAVRKYF [37]	85
AQMRRISLFSCLKDR [7]	150
RRISLFSCLKDRHDF [8]	180
AEIMRSFSLSTNLQE [49]	15
VGVTETPLMKEDSIL [35]	> 500

molecular target: HLA-DR DRB1*0701 on fixed MOU (MANN) cells (human); test: competition; details: modification not given

Binder	IC50 [µM]
FGNQFQKAETIPVLH [15]	25
KKYSPCAWEVVRAEI [45]	200
AVRKYFQRITLYLKE [40]	70
GFPQEEFGNQFQKAE [13]	> 500
QEEFGNQFQKAETIP [14]	> 500
TLYLKEKKYSPCAWE [43]	> 500
IQGVGVTETPLMKED [34]	> 500
SCLKDRHDFGFPQEE [10]	> 500
VVRAEIMRSFSLSTN [48]	7
HDFGFPQEEFGNQFQ [12]	> 500
LKEKKYSPCAWEVVR [44]	> 500
SILAVRKYFQRITLY [39]	60
TETPLMKEDSILAVR [36]	> 500
SPCAWEVVRAEIMRS [46]	8
KEDSILAVRKYFQRI [38]	> 500
SLFSCLKDRHDFGFP [9]	> 500
KDRHDFGFPQEEFGN [11]	> 500
PLMKEDSILAVRKYF [37]	> 500
AEIMRSFSLSTNLQE [49]	15
VGVTETPLMKEDSIL [35]	> 500

molecular target: HLA-DR DRB1*0401 on fixed WT-51 cells (human); test: competition; details: modification not given

Binder	IC50 [µM]
YTELYQQLNDLEACV [29]	5
FNLFSTKDSSAAWDE [22]	> 500
QQIFNLFSTKDSSAA [21]	70
KDSSAAWDETLLDKF [24]	450
